Legend:
[1] = target: fibrillin (molecule within bovine ciliary zonule microfibrils) (bovine (endogenous in ciliary zonule)) (UniProt P98133); experiment: cryo-EM structure; conditions: scale: fibrillin monomers per microfibril repeat
[2] = target: fibrillin microfibrils purified from bovine ciliary zonules (bovine (endogenous in ciliary zonule)) (UniProt P98133); experiment: STEM mass mapping; conditions: scale: molecules of LTBP-1 per microfibril repeat
fibrillin microfibrils purified from bovine ciliary zonules (bovine (endogenous in ciliary zonule)), sequence (P98133 25-2871): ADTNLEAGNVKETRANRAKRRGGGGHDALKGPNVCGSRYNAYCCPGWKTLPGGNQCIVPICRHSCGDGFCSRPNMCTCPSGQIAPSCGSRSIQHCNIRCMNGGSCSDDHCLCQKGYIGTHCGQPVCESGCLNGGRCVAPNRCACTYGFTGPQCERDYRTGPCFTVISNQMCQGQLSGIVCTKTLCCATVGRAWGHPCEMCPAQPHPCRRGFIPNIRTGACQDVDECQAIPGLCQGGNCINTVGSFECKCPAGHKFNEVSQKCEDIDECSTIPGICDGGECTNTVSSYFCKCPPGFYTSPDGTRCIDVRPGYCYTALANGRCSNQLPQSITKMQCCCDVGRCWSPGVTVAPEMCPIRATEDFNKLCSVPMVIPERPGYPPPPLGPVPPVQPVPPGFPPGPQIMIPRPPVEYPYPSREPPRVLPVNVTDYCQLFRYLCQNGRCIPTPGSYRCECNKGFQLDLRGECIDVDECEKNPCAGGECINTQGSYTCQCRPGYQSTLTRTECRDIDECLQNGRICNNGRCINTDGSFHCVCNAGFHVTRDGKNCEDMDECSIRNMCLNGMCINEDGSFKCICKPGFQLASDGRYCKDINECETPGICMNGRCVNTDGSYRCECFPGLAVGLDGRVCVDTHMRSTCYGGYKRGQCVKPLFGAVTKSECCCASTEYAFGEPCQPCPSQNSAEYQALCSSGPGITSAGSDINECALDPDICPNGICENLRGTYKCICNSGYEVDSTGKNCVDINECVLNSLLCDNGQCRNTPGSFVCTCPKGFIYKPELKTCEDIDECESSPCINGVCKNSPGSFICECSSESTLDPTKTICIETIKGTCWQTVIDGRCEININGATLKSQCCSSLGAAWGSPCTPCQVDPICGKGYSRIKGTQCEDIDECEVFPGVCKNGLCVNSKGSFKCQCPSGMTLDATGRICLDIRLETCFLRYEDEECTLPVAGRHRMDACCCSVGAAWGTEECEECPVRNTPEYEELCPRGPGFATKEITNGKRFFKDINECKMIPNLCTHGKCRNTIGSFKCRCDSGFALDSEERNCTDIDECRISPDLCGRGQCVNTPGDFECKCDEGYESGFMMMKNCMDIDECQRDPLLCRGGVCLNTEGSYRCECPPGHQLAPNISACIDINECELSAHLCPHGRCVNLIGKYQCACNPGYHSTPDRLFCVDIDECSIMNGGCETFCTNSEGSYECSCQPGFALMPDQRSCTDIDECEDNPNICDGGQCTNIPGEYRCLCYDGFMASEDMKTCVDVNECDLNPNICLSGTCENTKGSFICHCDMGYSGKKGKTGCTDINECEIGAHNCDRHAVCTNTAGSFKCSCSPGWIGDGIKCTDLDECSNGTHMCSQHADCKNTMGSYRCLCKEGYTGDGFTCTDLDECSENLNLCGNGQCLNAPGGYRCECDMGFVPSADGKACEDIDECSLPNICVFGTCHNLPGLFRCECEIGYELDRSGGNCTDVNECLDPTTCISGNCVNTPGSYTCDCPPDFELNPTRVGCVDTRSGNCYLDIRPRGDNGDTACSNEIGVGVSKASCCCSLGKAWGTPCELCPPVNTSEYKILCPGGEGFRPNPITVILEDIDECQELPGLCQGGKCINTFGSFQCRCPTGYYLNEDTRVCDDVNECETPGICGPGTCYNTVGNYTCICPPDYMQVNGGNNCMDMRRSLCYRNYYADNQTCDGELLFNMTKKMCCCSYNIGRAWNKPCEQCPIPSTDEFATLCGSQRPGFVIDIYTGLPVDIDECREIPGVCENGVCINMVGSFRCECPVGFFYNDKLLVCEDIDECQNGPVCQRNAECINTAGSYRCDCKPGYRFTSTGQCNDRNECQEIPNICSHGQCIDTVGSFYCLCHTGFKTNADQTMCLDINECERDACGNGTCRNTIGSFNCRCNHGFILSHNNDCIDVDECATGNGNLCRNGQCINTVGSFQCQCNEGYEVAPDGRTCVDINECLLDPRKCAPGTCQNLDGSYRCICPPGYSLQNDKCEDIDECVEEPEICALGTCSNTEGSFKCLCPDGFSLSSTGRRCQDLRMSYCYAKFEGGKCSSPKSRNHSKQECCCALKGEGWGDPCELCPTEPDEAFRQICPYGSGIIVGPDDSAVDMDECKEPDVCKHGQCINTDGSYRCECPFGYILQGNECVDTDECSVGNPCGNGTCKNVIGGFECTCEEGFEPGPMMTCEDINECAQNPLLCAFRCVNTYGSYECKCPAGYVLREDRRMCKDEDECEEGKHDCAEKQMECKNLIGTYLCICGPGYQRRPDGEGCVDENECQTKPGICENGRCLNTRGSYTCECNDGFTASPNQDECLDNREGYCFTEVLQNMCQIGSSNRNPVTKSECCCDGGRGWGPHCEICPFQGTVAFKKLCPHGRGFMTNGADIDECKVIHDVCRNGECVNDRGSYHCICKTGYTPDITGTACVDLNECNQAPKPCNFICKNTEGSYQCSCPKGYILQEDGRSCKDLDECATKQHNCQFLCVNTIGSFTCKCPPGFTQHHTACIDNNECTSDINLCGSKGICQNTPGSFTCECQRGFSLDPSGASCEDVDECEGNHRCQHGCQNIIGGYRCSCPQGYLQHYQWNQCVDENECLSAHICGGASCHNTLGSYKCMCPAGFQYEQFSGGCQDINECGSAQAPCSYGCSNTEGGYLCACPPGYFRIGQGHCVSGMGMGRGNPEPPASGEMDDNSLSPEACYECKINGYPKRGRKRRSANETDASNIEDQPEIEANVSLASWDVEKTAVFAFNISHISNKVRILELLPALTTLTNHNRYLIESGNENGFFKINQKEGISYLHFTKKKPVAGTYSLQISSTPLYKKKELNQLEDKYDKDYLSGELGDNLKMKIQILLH

fibrillin (molecule within bovine ciliary zonule microfibrils), sequence (P98133 25-2871): as above

stoichiometry N [1] | stoichiometry N [2] | Substance
8 |  | fibrillin (molecule within bovine ciliary zonule microfibrils) (from UniProt P98133 25-2871) (natural protein)
 | 2 | full-length LTBP-1 (latent TGFβ-binding protein-1) (from UniProt Q14766 24-1721) (natural protein)

Source: doi:10.1101/2022.08.26.505362
